Assay results from article PMC9977175.
Each block holds one substance with its values, some of them ahead of it.

Tests used:
[1] = molecular target: SUMO-tagged WIPI2b^Δ (residues 13 to 362 without 265 to 297) (human); assay: SEC-MALS
[2] = molecular target: SUMO-tagged WIPI2b^Δ (residues 13 to 362 without 265 to 297) (human); assay: ITC

Chain of Trx-tagged ATG16L1(78 to 247) (Q676U5 78-247): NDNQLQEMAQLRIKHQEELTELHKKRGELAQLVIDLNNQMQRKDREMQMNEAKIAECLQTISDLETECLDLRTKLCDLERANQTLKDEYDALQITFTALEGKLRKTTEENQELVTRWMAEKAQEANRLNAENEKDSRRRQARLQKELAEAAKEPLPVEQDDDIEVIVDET
Chain of ATG16L1(124 to 247) (Q676U5 124-247): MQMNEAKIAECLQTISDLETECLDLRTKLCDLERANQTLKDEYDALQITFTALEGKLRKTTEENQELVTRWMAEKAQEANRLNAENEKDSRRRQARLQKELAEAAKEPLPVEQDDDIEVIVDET
Chain of Trx-tagged ATG16L1(207 to 247) (Q676U5 207-247): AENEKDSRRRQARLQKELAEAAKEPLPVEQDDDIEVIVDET
Chain of Trx-tagged ATG16L1(78 to 206) (Q676U5 78-206): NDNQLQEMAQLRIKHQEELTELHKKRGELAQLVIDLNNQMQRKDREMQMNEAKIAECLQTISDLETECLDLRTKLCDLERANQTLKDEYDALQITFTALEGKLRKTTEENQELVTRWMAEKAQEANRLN

stoichiometry N (ATG16L1 chains per WIPI2b^Δ (2:2)) [1]: 1
Substance: ATG16L1(124 to 247) (from UniProt Q676U5 124-247) (domain or fragment)

Kd [2]: 6.88 µM
Substance: Trx-tagged ATG16L1(78 to 206) (from UniProt Q676U5 78-206) (domain or fragment)

KD of the WBS1 site (two-site fit) [2]: 2.88 µM | KD of the WBS2 site (two-site fit) [2]: 0.41 µM
Substance: Trx-tagged ATG16L1(78 to 247) (from UniProt Q676U5 78-247) (domain or fragment)

Kd [2]: 3.93 µM
Substance: Trx-tagged ATG16L1(207 to 247) (from UniProt Q676U5 207-247) (domain or fragment)
